We go through 9 molecules from patent US11156615B2 (priority 2015, dated 2021).

The nature of data set [1]: Thermostability: mid-point thermal denaturation temperature (Tm) from temperature-dependent fluorescence (Roche LightCycler). The data set is classed as physicochemical. The following applies: for apoTm: apo-protein. The source says: Protein (un)folding is monitored by binding of SYPRO to the unfolded state as a function of temperature. Fluorescence intensity increases upon binding of SYPRO by the unfolded state.
Panels A-C: ttGBP182C.2.0-Imm0; Panels D-F: ttGBP182C.2.0-Imm1 (see FIG. 13). (A) Solution (Tm=347.6K). (B) Immobilized on Nickel-nitriloacetic acid (Ni-NTA) beads (Tm=346.7K). (C) Reconstituted, desiccated Ni-NTA beads (Tm=347.6K). (D) Fluorescence response of ttGGBP5.2 Imm1 immobilized on NHS-functionalized agarose beads. Data was collected on a Roche LightCycler real-time PCS instrument, recording emission intensities at 488 nm and 510 nm as a function of temperature in a 384-well microtiter plate. […] Temperature melts of twelve different wells. Apo protein thermostability as reported by the denaturation mid-point temperature is 349 K, similar to the protein free in solution. […] (F) Representative Langmuir ligand-binding curve extracted from the three-dimensional data.
Temperatures were advanced in 1K steps. […] Under these experimental photobleaching was not observed.

Data set [2] can be described thus: Glucose binding: isothermal fluorescence titrations, ratiometric (appKd) and monochromatic (trueKd) fits. Details: key to Glucose appKd / Glucose trueKd: nb, no bonding. The following applies: for Kd: glucose. The source says: 2 For a single glucose-binding site, the fractional saturation is given by
[formula] where ^apoIλ2 and ^satIλ2 are the emission intensities of the monochromatic signal at wavelength λ2 of the ligand-free and ligand-bound protein, respectively.

Data set [3] is described as follows: Galactose binding: isothermal fluorescence titrations of conjugates. Details: key to Galactose trueKd: nb, no bonding. The note with it: for Kd: read-out: Galactose trueKd.
Where [4] appears, read: Acrylodan conjugate, monochromatic titration curves, room temperature.
Setting [5] is: Badan conjugate, monochromatic titration curves, room temperature.

Consider “ecGGBP: glucose-galactose binding protein from Escherichia coli, SEQ ID NO: 1 [reference compound]”, for which the “mid-point thermal denaturation temperature (Tm)” value in data set [1] (GGBP homologs) is given as 322 K.

B1: ttGGBP182C.2.0⋅Acrylodan: Acrylodan conjugate of ttGGBP W182C with Q148E+R91K double mutation (SEQ ID NO: 88) (conjugate)
chain: MKQLNIGVAIYKFDDTFMTGVRNAMTAEAQGKAKLNMVDSQNSQPTQNDQVDLFITKKMNALAINPVDRTAAGTIIDKAKQANIPVVFFNKEPLPEDMKKWDKVYYVGAKAEQSGILQGQIMADYWKAHPEADKNHDGVMQYVMLMGEPGHQDAILRTQYSIQTVKDAGIKVQELAKDYANCDRVTAHDKMAAWLSSFGDKIEAVFANNDDMALGAIEALKSAGYFTGNKYIPVVGVDATAPGIQAIKDGTLLGTVLNDAKNQAKATFNIAYELAQGITPTKDNIGYDITDGKYVWIPYKKITKDNISDAEQGGSHHHHHH
modifications: Acrylodan conjugate; ttGGBP182C.2.0 (affinity-tuning mutant, 182C background (Table 6) with signal peptide replaced with M and GGSHHHHHH at C-terminus)
In the case of B1, the Kd amounted to 4.5 mM in data set [2] (fit of ratiometric emission signal (figure legends), read-out: appKd); 6 mM in data set [2] (monochromatic fits at 475 nm and 545 nm (FIG. 11), read-out: trueKd). Also, the “decrease in glucose affinity” value in data set [2] (in ttGGBP182C⋅Acrylodan) was 2.6 fold.

B2: ttGGBP182C.2.9: affinity-tuning mutant, 182C background, SEQ ID NO: 96 (protein)
chain: MKQLNIGVAIYKFDDTFMTGVRNAMTAEAQGKAKLNMVDSQNSQPTQNDQVDLFITKKMNALAINPVDRTAAGTIIDKAKQANIPVVFFNKEPLPEDMKKWDKVYYVGAKAEQSGILQGQIMADYWKAHPEADKNHDGVMQYVMLMGEPGHQDFILRTQYSIQTVKDAGIKVQELAKDYANCDRVTAHDKMAAWLSSFGDKIEAVFANNDDMALGAIEALKSAGYFTGNKYIPVVGVDATAPGIQAIKDGTLLGTVLNDAKNQAKATFNIAYELAQGITPTKDNIGYDITDGKYVWIPYKKITKDNISDAEQGGSHHHHHH
modifications: ttGGBP182C.2.9 (affinity-tuning mutant, 182C background (Table 6) with signal peptide replaced with M and GGSHHHHHH at C-terminus)
B2 returned an apoTm in data set [1] (Acrylodan conjugate) of 345 K.

B3: ttGGBP182C.2.8: affinity-tuning mutant, 182C background, SEQ ID NO: 95 (protein)
chain: MKQLNIGVAIYKFDNTFMTGVRNAMTAEAQGKAKLNMVDSQNSQPTQNDQVDLFITKKMNALAINPVDRTAAGTIIDKAKQANIPVVFFNKEPLPEDMKKWDKVYYVGAKAEQSGILQGQIMADYWKAHPEADKNHDGVMQYVMLMGEPGHQDAILRTQYSIQTVKDAGIKVQELAKDYANCDRVTAHDKMAAWLSSFGDKIEAVFANNDDMALGAIEALKSAGYFTGNKYIPVVGVDATAPGIQAIKDGTLLGTVLNDAKNQAKATFNIAYELAQGITPTKDNIGYDITDGKYVWIPYKKITKDNISDAEQGGSHHHHHH
modifications: ttGGBP182C.2.8 (affinity-tuning mutant, 182C background (Table 6) with signal peptide replaced with M and GGSHHHHHH at C-terminus)
For the molecule B3, the “S, selectivity = trueKd(galactose)/trueKd(glucose)” value in data set [3] (Acrylodan conjugate, S > 1, selective for glucose) was found to be 1.8. The same molecule came in with an apoTm in data set [1] (Acrylodan conjugate) of 343 K.

B4: ttGGBP182C.2.4: affinity-tuning mutant, 182C background, SEQ ID NO: 91 (protein)
chain: MKQLNIGVAIYKFDDTFMTGVRNAMTAEAQGKAKLNMVDSQNSQPTQNDQVDLFITKKMNALAINPVDRTAAGTIIDKAKQANIPVVFFNKEPLPEDMKKWDKVYYVGAKAEQSGILQGQIMADYWKAHPEADKNHDGVMQYVMLMGEPGHQDMILRTQYSIQTVKDAGIKVQELAKDYANCDRVTAHDKMAAWLSSFGDKIEAVFANNDDMALGAIEALKSAGYFTGNKYIPVVGVDATAPGIQAIKDGTLLGTVLNDAKNQAKATFNIAYELAQGITPTKDNIGYDITDGKYVWIPYKKITKDNISDAEQGGSHHHHHH
modifications: ttGGBP182C.2.4 (affinity-tuning mutant, 182C background (Table 6) with signal peptide replaced with M and GGSHHHHHH at C-terminus)
On to B4, for which the Kd in data set [3] (setting [4]) amounted to 4.5 mM. In data set [1] (Acrylodan conjugate), this molecule yielded an apoTm of 346 K.

B5: ttGGBP17C.19: affinity-tuning mutant, 17C background, SEQ ID NO: 77 (protein)
chain: MKQLNIGVAIYKFDDTCMTGVRNAMTAEAQGKAKLNMVDSQNSQPTQNDQVDLFITKKMNALAINPVDRTAAGTIIDKAKQANIPVVFFNREPLPEDMKKWDKVYYVGAKAEQSGILQGQIMADYWKAHPEADKNHDGVMQYVMLMGQPGHQDAILRTQYSIQTVKDAGIKVQELAKDYANWDRVTAHDKMAAWLSSFGDKIEAVFANNDDMALGAIEALKSAGYFTGNKYIPVVGVDATAPGIQAIKDGTLLGTVLDDAKNQAKATFNIAYELAQGITPTKDNIGYDITDGKYVWIPYKKITKDNISDAEQGGSHHHHHH
modifications: ttGGBP17C.19 (affinity-tuning mutant, 17C background (Table 6) with signal peptide replaced with M and GGSHHHHHH at C-terminus)
Regarding B5, the “Galactose trueKd” value in data set [3] (setting [5]) is “nb^e”. In addition, in data set [2] (Badan conjugate, dichromatic ratiometry, room temperature), the “Glucose appKd” value was “nb^e”. For the same molecule, the “Glucose trueKd” value in data set [2] (setting [5]) was “nb^e”. In data set [1] (Badan conjugate), this molecule had an apoTm of 344 K.

B6: ttGGBP182C.7: affinity-tuning mutant, 182C background, SEQ ID NO: 101 (protein)
chain: MKQLNIGVAIYKFDDTFMTGVRNAMTAEAQGKAKLNMVDSQNSQPTQNDQVDLFITKKMNALAINPVDRTAAGTIIDKAKQANIPVVFFNKEPLPEDMKKWDKVYYVGAKAEQSGILQGQIMADYWKAHPEADKNHDGVMQYVMLMGSPGHQDAILRTQYSIQTVKDAGIKVQELAKDYANCDRVTAHDKMAAWLSSFGDKIEAVFANNDDMALGAIEALKSAGYFTGNKYIPVVGVDATAPGIQAIKDGTLLGTVLNDAKNQAKATFNIAYELAQGITPTKDNIGYDITDGKYVWIPYKKITKDNISDAEQGGSHHHHHH
modifications: ttGGBP182C.7 (affinity-tuning mutant, 182C background (Table 6) with signal peptide replaced with M and GGSHHHHHH at C-terminus)
With B6, the Kd in data set [3] (setting [4]) was determined as 1.1 mM. For the same molecule, in data set [1] (Acrylodan conjugate), the apoTm was found to be 346 K.

B7: ttGGBP182C: ttGGBP cys mutant, SEQ ID NO: 61 (protein)
chain: MKQLNIGVAIYKFDDTFMTGVRNAMTAEAQGKAKLNMVDSQNSQPTQNDQVDLFITKKMNALAINPVDRTAAGTIIDKAKQANIPVVFFNREPLPEDMKKWDKVYYVGAKAEQSGILQGQIMADYWKAHPEADKNHDGVMQYVMLMGQPGHQDAILRTQYSIQTVKDAGIKVQELAKDYANCDRVTAHDKMAAWLSSFGDKIEAVFANNDDMALGAIEALKSAGYFTGNKYIPVVGVDATAPGIQAIKDGTLLGTVLNDAKNQAKATFNIAYELAQGITPTKDNIGYDITDGKYVWIPYKKITKDNISDAEQGGSHHHHHH
modifications: ttGGBP182C (ttGGBP cys mutant with signal peptide replaced with M and GGSHHHHHH at C-terminus)
For B7, the Kd in data set [3] (setting [4]) stood at 3.3 mM. Moreover, the apoTm in data set [1] (Acrylodan conjugate) is listed as 347 K.

B8: ttGGBP182C.2.7: affinity-tuning mutant, 182C background, SEQ ID NO: 94 (protein)
chain: MKQLNIGVAIYKFDDTFMTGVRNAMTAEAQGKAKLNMVDSQNSQPTQNDQVDLFITKKMNALAINPVDRTAAGTIIDKAKQANIPVVFFNKEPLPEDMKKWDKVYYVGAKAEQSGILQGQIMADYWKAHPEADKNHDGVMQYVMLMGEPGFQDAILRTQYSIQTVKDAGIKVQELAKDYANCDRVTAHDKMAAWLSSFGDKIEAVFANNDDMALGAIEALKSAGYFTGNKYIPVVGVDATAPGIQAIKDGTLLGTVLNDAKNQAKATFNIAYELAQGITPTKDNIGYDITDGKYVWIPYKKITKDNISDAEQGGSHHHHHH
modifications: ttGGBP182C.2.7 (affinity-tuning mutant, 182C background (Table 6) with signal peptide replaced with M and GGSHHHHHH at C-terminus)
In turn, B8 returned an apoTm in data set [1] (Acrylodan conjugate) of 346 K.
